Our source for the cell migration values is patent US20060241067A1, “Methods For inhibiting angiogenesis, cell migration, cell adhesion, and cell survival” (priority 2002, published 2006).

This experiment concerns Human umbilical vein endothelial cells (HUVEC). Description: Endothelial cell migration assay (transwell) on ECM substrates. It is filed as cell-based. The conditions noted are these: inventors' data, no details given. As to the method: Human umbilical vein endothelial cells (HUVEC) were grown in Endothelial Growth Medium (containing 2% fetal bovine serum, bFGF and VEGF) (Clonetics, San Diego, Calif.). To render HUVECs quiescent for Rac and/or Rho assays, monolayers of endothelial cells were incubated for 18 hrs in Endothelial Basal Medium supplemented with 0.1% serum (Clonetics). Cell migration and adhesion assays on ECM substrates were performed as previously described in Kim et al. (S. Kim et al., Amer. J. Biol. Chem., 275:33920-33928 (2000); and S. Kim et al., Amer. J. Path., 156:1345-1362 (2000)).
Migration assays were performed essentially as described (Kim, et. al., 2000). […] HUVECS (25,000) were added to the upper chamber of inserts in migration buffer (Hepes buffered M199 medium containing 1% BSA, 2 mM MgCl2, 2 mM CaCl2 and 0.2 mM MnCl2) containing 25 μg/ml of various antibodies. In some experiments, 250 μM dibutyryl cAMP was placed in the upper and lower chambers of the transwell. Cells were allowed to migrate from the upper to the lower chamber for four hours at 37° C. The number of cells which had migrated were counted in three representative high power (200×) fields per insert. The data are presented as number of cells migrating+/−standard error of the mean. […] In this case, migrated transfected cells were identified by fluorescent microscopy and counted.

B1: Csk: enzyme that phosphorylates Src on Tyr 527 and inhibits its activity (protein, UniProt P41240 2-450, looked up)
Tyrosine-protein kinase CSK: SAIQAAWPSGTECIAKYNFHGTAEQDLPFCKGDVLTIVAVTKDPNWYKAKNKVGREGIIPANYVQKREGVKAGTKLSLMPWFHGKITREQAERLLYPPETGLFLVRESTNYPGDYTLCVSCDGKVEHYRIMYHASKLSIDEEVYFENLMQLVEHYTSDADGLCTRLIKPKVMEGTVAAQDEFYRSGWALNMKELKLLQTIGKGEFGDVMLGDYRGNKVAVKCIKNDATAQAFLAEASVMTQLRHSNLVQLLGVIVEEKGGLYIVTEYMAKGSLVDYLRSRGRSVLGGDCLLKFSLDVCEAMEYLEGNNFVHRDLAARNVLVSEDNVAKVSDFGLTKEASSTQDTGKLPVKWTAPEALREKKFSTKSDVWSFGILLWEIYSFGRVPYPRIPLKDVVPRVEKGYKMDAPDGCPPAVYEVMKNCWHLDAAMRPSFLQLREQLEHIKTHELHL
Regarding B1, the cell migration result is “causes inhibition of cell migration”.
